Substrate in this data set: CC(=O)N[C@@H](CCC(=O)O)C(=O)O
The data set can be described thus: purified protein, by the assay type. As to conditions: pH 7.5.

B1: ScNAGK (Synechocystis sp. PCC 6803 substr. Kazusa) (protein)
chain: MSSTQDYIGEEAATRVKILSEALPYIQHFAGRTVVVKYGGAAMKDSNLKDKVIRDIVFMASVGIRPVVVHGGGPEINTWLDKVGIEPQFKDGLRVTDAATMDIVEMVLVGRVNKELVNLINQAGGKAVGLCGKDGQLMTARTMTNKDVGFVGEVSSVDARVVETLVKSGYIPVISSVAADEFGQAHNINADTCAGELAAALGAEKLILLTDTRGILRDYKDPSTLIHKLDIQQARELIGSGIVAGGMIPKVTCCVRSLAQGVRAAHILDGRLPHALLLEVFTDLGIGSMIVASGYDL
For B1, the Km amounted to 16.23 mM.

(Values after article PMC5768801, “The PII signaling protein from red algae represents an evolutionary link between cyanobacterial and Chloroplastida PII proteins” (Scientific Reports, 2018).)
